Measured values as given in patent US20210032338A1.

Target: T Cell Receptor Gamma Variable 9 (TRGV9) on human γδ T cells (human) (UniProt Q99603)
Assay: binding to γδ-enriched T cells, 1 h at 37 °C (panel γδ T-cell binding)

B1: VG9B2, chimera human IgG1 mAb (silent Fc) of mouse anti-human TCR Vγ9 clone B3 (antibody, V domains shown)
VH: QGQMQQSGAELVKPGASVKLSCKTSGFTFSSNYISWLKQKPGQSLEWIAWIHGGTGGIGYNQKFTGKAQLTVDTSSTTAYMQFSSLTTEDSAIYYCARRGYGAWFAYWGQGTLVTVSA
VL: DIQMTQSPASLSASVGETVTITCRASENIHNYLAWYQQKQGKSPQLLVYNAKTLADGVPSRFSGSGSGTQYSLKINSLQPEDFGNYYCQHFWSYPLTFGAGTKLELK
EC50: 560 pM
